Assay results taken from patent US20230365705A1 (DYNAMICURE BIOTECHNOLOGY, published 2023).
Read-outs that look alike come from different tables or passages of the source. One block for each binder: values may come before it.

Columns and labels:
[1] = molecular target: T1, Human CD93 on cells (human CD93 expressing CHO cells; HUVEC, U937 and KG1a cells) (human, UniProt Q9NPY3 22-652); assay: flow cytometry, CHO cells overexpressing human CD93, antibody 0.01ug, mIgG1 as control, APC-A
T1 construct: whole, on cells; also called hCD93 expressing CHO cells; hCD93 CHO cells
T1 sequence (looked up): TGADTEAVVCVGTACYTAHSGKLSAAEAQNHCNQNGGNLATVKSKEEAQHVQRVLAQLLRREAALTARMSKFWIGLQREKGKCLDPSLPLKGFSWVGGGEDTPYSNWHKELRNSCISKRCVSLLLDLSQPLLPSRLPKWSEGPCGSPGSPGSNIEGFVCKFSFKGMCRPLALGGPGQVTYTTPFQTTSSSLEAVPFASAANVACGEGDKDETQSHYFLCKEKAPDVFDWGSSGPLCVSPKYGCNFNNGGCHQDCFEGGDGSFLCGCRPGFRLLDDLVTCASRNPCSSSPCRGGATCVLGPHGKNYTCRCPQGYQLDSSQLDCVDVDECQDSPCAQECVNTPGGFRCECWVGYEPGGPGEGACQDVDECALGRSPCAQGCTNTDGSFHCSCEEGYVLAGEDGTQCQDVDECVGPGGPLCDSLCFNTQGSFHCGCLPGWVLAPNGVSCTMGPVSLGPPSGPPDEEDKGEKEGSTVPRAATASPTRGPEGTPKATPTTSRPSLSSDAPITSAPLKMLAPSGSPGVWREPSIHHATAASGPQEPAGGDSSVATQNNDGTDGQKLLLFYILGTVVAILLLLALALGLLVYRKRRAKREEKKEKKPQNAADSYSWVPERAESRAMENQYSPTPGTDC

[2] = molecular target: T1, Human CD93 on cells (human CD93 …); assay: as above; remark: listed apart in the source
[3] = molecular target: T1, Human CD93 on cells (human CD93 …); assay: flow cytometry, CD93 expressing CHO cells, antibody 10 ug/ml, FITC-A
Protocol: Human CD93 expressing CHO cells were detached by incubation with TrypLE reagents (Thermos Fisher), which preserves the integrity of CD93 on the cell surface. […] After washing with FACS buffer twice, the samples were acquired in NovoCyte Flow Cytometer and analyzed by NovoExpress software.

[4] = molecular target: T2, Human CD93 recombinant protein (Sino Biological Inc, Catalog #12589-H08H) (human, UniProt Q9NPY3 22-580); assay: BLI (Octet QKe), biotinylated human CD93 on streptavidin biosensors
T2 construct: Biotinylated (EZ-LINK NHS-PEG4 biotin) in the BLI assays; also called hCD93; His-tagged human CD93
T2 sequence (looked up): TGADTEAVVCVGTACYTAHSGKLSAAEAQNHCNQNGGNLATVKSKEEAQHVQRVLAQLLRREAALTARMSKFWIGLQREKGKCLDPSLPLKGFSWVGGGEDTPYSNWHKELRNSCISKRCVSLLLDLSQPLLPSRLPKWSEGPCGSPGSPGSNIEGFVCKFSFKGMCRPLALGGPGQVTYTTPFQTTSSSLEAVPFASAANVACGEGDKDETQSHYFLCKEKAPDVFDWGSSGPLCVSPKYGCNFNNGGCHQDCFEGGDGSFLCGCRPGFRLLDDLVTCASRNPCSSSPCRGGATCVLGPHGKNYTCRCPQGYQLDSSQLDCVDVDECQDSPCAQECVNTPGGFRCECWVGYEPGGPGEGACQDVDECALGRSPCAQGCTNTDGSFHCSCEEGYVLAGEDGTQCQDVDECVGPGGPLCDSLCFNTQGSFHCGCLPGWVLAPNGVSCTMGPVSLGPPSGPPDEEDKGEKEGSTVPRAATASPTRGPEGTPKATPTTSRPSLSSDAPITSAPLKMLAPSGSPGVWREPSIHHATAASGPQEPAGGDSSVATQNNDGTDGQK
Protocol: The binding affinity of anti-CD93 antibodies were determined with bio-layer interferometry using Octet QKe (Fortebio). Human CD93 recombinant protein (Sino Biological Inc, Catalog #12589-H08H) or cynomolgus CD93 protein (made in-house) were biotinylated using EZ-LINK NHS-PEG4 biotin (Thermo Fisher Scientific). Streptavidin biosensors (Fortebio) were used to load biotinylated CD93 protein (300 seconds in 5 μg/ml). The baseline was stabilized for 60 seconds in 1× kinetics buffer (Fortebio) before anti-CD93 antibodies at a serial dilution were allowed to associate for 300 seconds with captured protein. Then the sensors were dissociated in 1× kinetics buffer for 600 seconds.

[5] = molecular target: T1, Human CD93 on cells (human CD93 …); assay: flow cytometry, CHO-hCD93 cells, APC-A
[6] = molecular target: T2, Human CD93 recombinant protein (Sino …); assay: BLI (Octet), human CD93; sheet prints Anti-Penta-HIS(HIS1K) biosensor
[7] = molecular target: T1, Human CD93 on cells (human CD93 …); assay: flow cytometry blocking assay, CHO-hCD93 cells, antibody 50 ug/ml then MMRN2 0.5 ug/ml, APC-A
Protocol: (§1) After incubation, the cells were washed with FACS buffer and incubated with anti-His conjugated APC or streptavidin conjugated APC at a ratio of 1:500 for 30 minutes at 4° C. After washing with FACS buffer twice, the samples were analyzed and data acquired in NovoCyte Flow.

[8] = molecular target: T1, Human CD93 on cells (human CD93 …); assay: flow cytometry blocking assay, CHO-hCD93 cells, antibody 50 ug/ml then MMRN2 0.1 ug/ml, APC-A
Protocol: as §1

[9] = molecular target: T2, Human CD93 recombinant protein (Sino …); assay: ELISA, His-tagged human CD93 coated, OD450
Protocol: His-tagged human CD93 was coated onto a 96 well plate at 1 μg/mL in 1×PBS overnight at 4° C. The plate was washed with ELISA wash buffer (Boston BioProduct, Inc.) and the wells were blocked with ELISA blocking buffer for 1 hour at 37° C. […] The plate was washed with ELISA wash Buffer. […] The plate was washed with ELISA wash Buffer. HRP substrate was added for indirect detection of the antibodies binding to CD93.

- M2 gate, % of cells [1]: 99.2%
B1: humanized 17B10 H1L3 (antibody, mouse IgG1, V domains shown)
VH: QVQLVQSGAEVKKPGSSVKVSCKASGYAFSSYWLNWVRQAPGQGLEWFGRIYPGDGDTDYNGKFKGRVTLTADKSTSTAYMELSSLRSEDTAVYFCVRGDGYWAMDYWGQGTTVTVSS
VL: DIVMTQSPDSLAVSLGERATINCRFSKSLLHSNGITYLYWYQQKPGQPPKLLIYQMSNLASGVPDRFSGSGSGTDFTLTISSLQAEDVAVYYCAQNLELPWTFGGGTKLEIK
notes: Chimeric Fc: human CH1, mouse IgG1 CH2 and CH3

- M2 gate, % of cells [2]: 99.2%
B2: humanized 17B10 H2L3 (antibody, mouse IgG1, V domains shown)
VH: QVQLVQSGAEVVKSGASVKVSCKASGYAFSSYWLNWVRQAPGQGLEWFGRIYPGDGDTDYNGKFKGRVTLIRDTSTSTVYMELTSLTSEDTAVYYCVRGDGYWAMDYWGQGTLVTVSS
VL: DIVMTQSPDSLAVSLGERATINCRFSKSLLHSNGITYLYWYQQKPGQPPKLLIYQMSNLASGVPDRFSGSGSGTDFTLTISSLQAEDVAVYYCAQNLELPWTFGGGTKLEIK
notes: as for B1

- binding result [3]: binds
- binding result [4]: binds
B3: 20C7 (antibody, V domains shown)
VH: EVQLQQSGPELVNPGASVKMSCKASGYTFTAYVMHWVKQKPGQGLEWIGYIFPYNDGTEYNEKFKGKATLTSDKSSSTAYMELSSLTSEDSAVYYCARRTDGNPYTMDYWGQGTSVTVSS
VL: DIVMTQSHKFMSTSVGDRVSITCKASQDVSTAVAWYQQKPGQSPKLLIHSASYRYTGVPDRFTGRGSGTDFTFTISSVQAEDLAVYYCQQHYSTPFTFGSGTKLEIK
notes: Mouse hybridoma monoclonal antibody

- M3 gate, % of cells [5]: 97.3%
- Kd [6]: 0.904 nM
- koff [6]: 0.000116 s⁻¹
- kon [6]: 128000 M⁻¹ s⁻¹
- M3 gate, % of cells positive for MMRN2 after the antibody [7]: 47.2%
- M3 gate, % of cells positive for MMRN2 after the antibody [8]: 29.4%
B4: 10B1 (antibody, V domains shown)
VH: QVQLKQSGPGLVQPSQSLSITCTVSDFSLSSFGVNWVRQPPGKGLEWLGVIWSGGSTDYNVAFISRLSISKDNSKSQVFFKMNNLQADDTAIYYCARNWRYDGYFYAMDYWGQGTSVTVSS
VL: DIVMTQSQKFMSTSTGDRVSVTCKASQNVGTNVAWYQQKPGQSPKALIYSASYRFIGVPDRFTGSGSGTDFTLTITNVQSEDLAEYFCQQYNRNPITFGSGTKLEIK
notes: as for B3

- EC50 [9]: 0.153 nM
B5: 17B10 (hybridoma) (antibody, V domains shown)
VH: QVQLQQSGPELVKPGASVKISCKASGYAFSSYWLNWVKQRPGKGLEWFGRIYPGDGDTDYNGKFKGKATLTADKSSSTAYMQLRSLTSEDSAVYFCVRGDGYWAMDYWGQGTSVTVSS
VL: DIVMTQAAFSNPVTLGTSASISCRFSKSLLHSNGITYLYWYLQKPGQSPQLLIYQMSNLASGVPDRFSSSGSGTDFTLRISRVEAEDVGVYYCAQNLELPWTFGGGTKLEIK
notes: as for B3

- M2 gate, % of cells [2]: 99.5%
B6: humanized 17B10 H3L1 (antibody, mouse IgG1, V domains shown)
VH: QVQLVQSGPEVKKPGESLKISCKASGYAFSSYWLNWVRQMPGKGLEWMGRIYPGDGDTDYNGKFKGQVTISADKSSGTAYLQLSSLKASDTAVYFCVRGDGYWAMDYWGQGTLVTVSS
VL: DIVMTQSPLSLPVTPGEPASISCRFSQSLLHSNGITYLYWYLQKPGQSPQLLIYQMSNLASGVPDRFSGSGSGTDFTLKISRVEAEDVGVYYCAQNLELPWTFGGGTKLEIK
notes: as for B1

- M2 gate, % of cells [2]: 99%
B7: humanized 17B10 H1L1 (antibody, mouse IgG1, V domains shown)
VH: QVQLVQSGAEVKKPGSSVKVSCKASGYAFSSYWLNWVRQAPGQGLEWFGRIYPGDGDTDYNGKFKGRVTLTADKSTSTAYMELSSLRSEDTAVYFCVRGDGYWAMDYWGQGTTVTVSS
VL: DIVMTQSPLSLPVTPGEPASISCRFSQSLLHSNGITYLYWYLQKPGQSPQLLIYQMSNLASGVPDRFSGSGSGTDFTLKISRVEAEDVGVYYCAQNLELPWTFGGGTKLEIK
notes: as for B1

- EC50 [9]: 0.0167 nM
B8: 17B10-hIgG1 (recombinant parental 17B10-hFc) (antibody, V domains shown)
VH: QVQLQQSGPELVKPGASVKISCKASGYAFSSYWLNWVKQRPGKGLEWFGRIYPGDGDTDYNGKFKGKATLTADKSSSTAYMQLRSLTSEDSAVYFCVRGDGYWAMDYWGQGTSVTVSS
VL: DIVMTQAAFSNPVTLGTSASISCRFSKSLLHSNGITYLYWYLQKPGQSPQLLIYQMSNLASGVPDRFSSSGSGTDFTLRISRVEAEDVGVYYCAQNLELPWTFGGGTKLEIK
notes: also called recombinant parental 17B10 with the human Fc; 17B10 chimeric

- M2 gate, % of cells [2]: 92.1%
B9: humanized 17B10 H1L2 (antibody, mouse IgG1, V domains shown)
VH: QVQLVQSGAEVKKPGSSVKVSCKASGYAFSSYWLNWVRQAPGQGLEWFGRIYPGDGDTDYNGKFKGRVTLTADKSTSTAYMELSSLRSEDTAVYFCVRGDGYWAMDYWGQGTTVTVSS
VL: DIVMTQTPLSLPVTPGEPASISCRFSQSLLHSNGITYLYWYLQKPGQSPQLLIYTMSNLASGVPDRFSGSGSGTDFTLKISRVEAEDVGVYYCAQNLELPWTFGGGTKLEIK
notes: as for B1

- M2 gate, % of cells [1]: 96.7%
B10: humanized 17B10 H3L2 (antibody, mouse IgG1, V domains shown)
VH: QVQLVQSGPEVKKPGESLKISCKASGYAFSSYWLNWVRQMPGKGLEWMGRIYPGDGDTDYNGKFKGQVTISADKSSGTAYLQLSSLKASDTAVYFCVRGDGYWAMDYWGQGTLVTVSS
VL: DIVMTQTPLSLPVTPGEPASISCRFSQSLLHSNGITYLYWYLQKPGQSPQLLIYTMSNLASGVPDRFSGSGSGTDFTLKISRVEAEDVGVYYCAQNLELPWTFGGGTKLEIK
notes: as for B1

- M2 gate, % of cells [1]: 98.2%
B11: humanized 17B10 H2L1 (antibody, mouse IgG1, V domains shown)
VH: QVQLVQSGAEVVKSGASVKVSCKASGYAFSSYWLNWVRQAPGQGLEWFGRIYPGDGDTDYNGKFKGRVTLIRDTSTSTVYMELTSLTSEDTAVYYCVRGDGYWAMDYWGQGTLVTVSS
VL: DIVMTQSPLSLPVTPGEPASISCRFSQSLLHSNGITYLYWYLQKPGQSPQLLIYQMSNLASGVPDRFSGSGSGTDFTLKISRVEAEDVGVYYCAQNLELPWTFGGGTKLEIK
notes: as for B1
